Measurements as given in patent US20240182547A1 (MOGAM INSTITUTE FOR BIOMEDICAL RESEARCH, published 2024).

B1: 12F7 (antibody, V domains shown)
VH: QMQLVQSGPEVKKPGSSVKVSCKASGYTFTDYGLSWVRQAPGHGLEWMGWITAYNGDTNYAQKFQDRLSVTTDISTSTAYMELRSLKSDDTAVYYCARHVFCSGDGCYSGLGSWGQGTLVTVSS
VL: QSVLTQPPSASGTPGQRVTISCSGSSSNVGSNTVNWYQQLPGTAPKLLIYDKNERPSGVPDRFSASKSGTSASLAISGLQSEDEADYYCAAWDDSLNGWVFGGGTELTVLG
notes: IgG made in Expi293; also called #38; 38
B2: #38m (antibody, V domains shown)
VH: QVQLVQSGAEVKKPGASVKVSCKASGYTFTDYGLSWVRQAPGHGLEWMGWITAYNGDTNYAQKFQDRLSVTTDISTSTAYMELRSLKSDDTAVYYCARHVFCSGDGCYSGLGSWGQGTLVTVSS
VL: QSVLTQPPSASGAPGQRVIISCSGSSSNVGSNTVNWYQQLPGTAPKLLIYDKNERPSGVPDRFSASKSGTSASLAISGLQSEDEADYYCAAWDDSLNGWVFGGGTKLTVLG
notes: Germline-edited (m) form of 12F7, heavy and light chain edited; IgG; also called 12F7 (modified)
B3: 4H11 (antibody, V domains shown)
VH: QVQLVQSGAEVKKPGASVKVSCKASGYTFTDYGLSWVRQAPGHGLEWMGWITAYNGDTNYAQKFQDRLSVTTDISTSTAYMELRSLKSDDTAVYYCARHVFCSGDGCYSGLGSWGQGTLVTVSS
VL: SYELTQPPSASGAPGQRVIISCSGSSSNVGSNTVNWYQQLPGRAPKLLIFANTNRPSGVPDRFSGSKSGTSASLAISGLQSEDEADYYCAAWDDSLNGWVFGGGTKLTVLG
notes: IgG made in Expi293; also called #40; 40
B4: #40m (antibody, V domains shown)
VH: QVQLVQSGAEVKKPGASVKVSCKASGYTFTDYGLSWVRQAPGHGLEWMGWITAYNGDTNYAQKFQDRLSVTTDISTSTAYMELRSLKSDDTAVYYCARHVFCSGDGCYSGLGSWGQGTLVTVSS
VL: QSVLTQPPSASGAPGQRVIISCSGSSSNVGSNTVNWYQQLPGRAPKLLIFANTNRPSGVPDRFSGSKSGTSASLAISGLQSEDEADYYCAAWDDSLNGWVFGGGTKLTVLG
notes: Germline-edited (m) form of 4H11, light chain edited; IgG; also called 4H11 (modified)
B5: 2G3 (antibody, V domains shown)
VH: QVQLVQSGAEVKKPGASVKVSCKASGYTFTDYGLSWVRQAPGHGLEWMGWITAYNGDTNYAQKFQDRLSVTTDISTSTAYMELRSLKSDDTAVYYCARHVFCSGDGCYSGLGSWGQGTLVTVSS
VL: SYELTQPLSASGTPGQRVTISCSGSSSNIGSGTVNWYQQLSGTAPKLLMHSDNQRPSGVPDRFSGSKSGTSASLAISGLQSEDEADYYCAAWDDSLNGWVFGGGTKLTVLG
notes: IgG made in Expi293; also called #41; 41
B6: #41m (antibody, V domains shown)
VH: QVQLVQSGAEVKKPGASVKVSCKASGYTFTDYGLSWVRQAPGHGLEWMGWITAYNGDTNYAQKFQDRLSVTTDISTSTAYMELRSLKSDDTAVYYCARHVFCSGDGCYSGLGSWGQGTLVTVSS
VL: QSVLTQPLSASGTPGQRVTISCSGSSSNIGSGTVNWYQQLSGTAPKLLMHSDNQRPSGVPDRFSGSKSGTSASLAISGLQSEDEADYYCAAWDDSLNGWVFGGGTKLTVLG
notes: Germline-edited (m) form of 2G3, light chain edited; IgG; also called 2G3 (modified)
B7: 12C10 (antibody, V domains shown)
VH: QVQLVQSGSEVKKPGASVKVSCKASGYTFTDYGLSWVRQAPGHGLEWMGWITAYNGDTNYAQKFQDRLSVTTDISTSTAYMELRSLKSDDTAVYYCARHVFCSGDGCYSGLGSWGQGTLVTVSS
VL: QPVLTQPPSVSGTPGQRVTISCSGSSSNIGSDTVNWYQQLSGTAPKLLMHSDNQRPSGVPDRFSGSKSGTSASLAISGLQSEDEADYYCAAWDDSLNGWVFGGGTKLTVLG
notes: IgG made in Expi293; also called #42; 42
B8: 4H5 (antibody, V domains shown)
VH: EVQLVESGGGLVKPGGSLRLSCAGSGFTFSSYTMHWVRQAPGKGLEWVSSITGGSSYVDYSASVKGRFTISRDNAQSSLYLQMNSLRAEDTAVYYCARDDYGSGSYSNWFDPWGQGTLVTVSS
VL: QSVLTQPPSVSGAPGQRVTISCTGSSSNIGAGYDVHWYQQLPGAAPRLLMFGNSNRPSGVPDRFSGSKSGTSASLAITGLQAEDEADYYCQSYDRSLSHVFGTGTKVTVLG
notes: IgG made in Expi293
B9: #42m (antibody, V domains shown)
VH: QVQLVQSGSEVKKPGASVKVSCKASGYTFTDYGLSWVRQAPGHGLEWMGWITAYNGDTNYAQKFQDRLSVTTDISTSTAYMELRSLKSDDTAVYYCARHVFCSGDGCYSGLGSWGQGTLVTVSS
VL: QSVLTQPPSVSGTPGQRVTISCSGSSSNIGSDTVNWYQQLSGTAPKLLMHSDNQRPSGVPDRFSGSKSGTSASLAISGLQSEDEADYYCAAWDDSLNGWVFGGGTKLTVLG
notes: Germline-edited (m) form of 12C10, light chain edited; IgG; also called 12C10 (modified)
B10: 3E8 (antibody, V domains shown)
VH: QVQLVQSGSEVKKPGASVKVSCKASGYTFTDYGLSWVRQAPGHGLEWMGWITAYNGDTNYAQKFQDRLSVTTDISTSTAYMELRSLKSDDTAVYYCARHVFCSGDGCYSGLGSWGQGTLVTVSS
VL: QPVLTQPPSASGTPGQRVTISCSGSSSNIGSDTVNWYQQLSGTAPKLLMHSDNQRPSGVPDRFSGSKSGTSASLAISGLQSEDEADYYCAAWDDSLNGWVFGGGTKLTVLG
notes: IgG made in Expi293; also called #43; 43
B11: 4G5 (antibody, V domains shown)
VH: QVQLVQSGSEVKKPGASVKVSCKASGYTFTDYGLSWVRQAPGHGLEWMGWITAYNGDTNYAQKFQDRLSVTTDISTSTAYMELRSLKSDDTAVYYCARHVFCSGDGCYSGLGSWGQGTLVTVSS
VL: not shown
notes: IgG made in Expi293; also called #45; 45
B12: #45m (antibody, V domains shown)
VH: QVQLVQSGSEVKKPGASVKVSCKASGYTFTDYGLSWVRQAPGHGLEWMGWITAYNGDTNYAQKFQDRLSVTTDISTSTAYMELRSLKSDDTAVYYCARHVFCSGDGCYSGLGSWGQGTLVTVSS
VL: not shown
notes: Germline-edited (m) form of 4G5, light chain edited; IgG; also called 4G5 (modified)
B13: 2E8 (antibody, V domains shown)
VH: QVQLVQSGPEVKKPGSSVKVSCKASGYTFTDYGLSWVRQAPGHGLEWMGWITAYNGDTNYAQKFQDRLSVTTDISTSTAYMELRSLKSDDTAVYYCARHVFCSGDGCYSGLGSWGQGTLVTVSS
VL: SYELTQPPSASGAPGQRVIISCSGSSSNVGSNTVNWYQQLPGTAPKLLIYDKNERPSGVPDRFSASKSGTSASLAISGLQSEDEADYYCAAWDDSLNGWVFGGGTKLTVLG
notes: IgG made in Expi293; also called #46; 46

biological target: DS-Cav1 (RSV F-protein, pre-form, in-house) (respiratory syncytial virus (RSV), UniProt P03420 26-513); assay: ELISA, coated DS-Cav1, IgG titrated
Sequence (P03420 26-524): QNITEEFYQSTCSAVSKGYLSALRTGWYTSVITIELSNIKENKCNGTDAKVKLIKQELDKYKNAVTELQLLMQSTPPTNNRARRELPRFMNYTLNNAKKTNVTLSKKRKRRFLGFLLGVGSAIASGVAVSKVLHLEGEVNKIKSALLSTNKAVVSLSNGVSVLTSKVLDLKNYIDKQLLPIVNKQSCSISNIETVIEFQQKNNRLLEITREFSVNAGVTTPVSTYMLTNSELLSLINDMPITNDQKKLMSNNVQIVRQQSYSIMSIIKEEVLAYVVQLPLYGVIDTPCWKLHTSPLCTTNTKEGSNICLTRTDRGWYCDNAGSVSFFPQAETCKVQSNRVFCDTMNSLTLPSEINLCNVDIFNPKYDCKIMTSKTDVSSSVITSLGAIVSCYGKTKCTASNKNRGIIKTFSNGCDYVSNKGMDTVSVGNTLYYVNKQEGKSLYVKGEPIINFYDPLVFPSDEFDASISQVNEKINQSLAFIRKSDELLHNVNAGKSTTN

| Binder | Kd [nM] |
| --- | --- |
| B1 | ~0.27 |
| B2 | ~1.24 |
| B3 | ~0.39 |
| B4 | ~1.25 |
| B5 | ~2.11 |
| B6 | ~1.23 |
| B7 | ~0.44 |
| B8 | ~0.23 |
| B9 | ~1.25 |
| B10 | ~0.45 |
| B11 | ~0.67 |
| B12 | ~0.95 |
| B13 | ~0.47 |
